From US20110129459A1 (Chugai, published 2011)

Tests used:
[1] = target: T1, mmh (human/mouse chimeric NR10 extracellular domain, His/Myc tagged) (human/mouse chimera); assay: Western blotting, 0.5 µg antigen per lane
T1 construct: C-terminal His-Myc tag
T1 chain: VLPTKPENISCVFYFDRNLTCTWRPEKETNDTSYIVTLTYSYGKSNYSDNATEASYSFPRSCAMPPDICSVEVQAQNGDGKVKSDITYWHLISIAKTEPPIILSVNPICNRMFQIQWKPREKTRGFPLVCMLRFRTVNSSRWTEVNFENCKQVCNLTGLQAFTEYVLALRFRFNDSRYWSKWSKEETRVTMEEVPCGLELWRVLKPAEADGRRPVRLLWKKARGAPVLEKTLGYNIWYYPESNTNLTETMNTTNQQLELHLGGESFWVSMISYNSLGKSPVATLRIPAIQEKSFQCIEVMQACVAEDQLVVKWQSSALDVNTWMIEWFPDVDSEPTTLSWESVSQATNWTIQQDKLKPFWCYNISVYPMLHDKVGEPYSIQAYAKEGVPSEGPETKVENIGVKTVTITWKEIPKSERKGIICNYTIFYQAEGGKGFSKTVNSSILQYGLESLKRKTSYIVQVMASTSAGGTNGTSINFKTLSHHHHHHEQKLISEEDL
Protocol: (§1) Each of the prepared human/mouse wild-type and chimeric antigens was electrophoresed at 0.5 μg/lane on three 4-20% polyacrylamide gels (Daiichi Pure Chemicals Co.). The proteins were electro-transferred onto PVDF membranes (Millipore) in a semi-dry blotting apparatus, and the membranes were blocked with TBS containing 5% skim milk. One membrane was incubated with 5 μg/ml of H44M58L17 (detection system for humanized anti-human NR10 antibody); another with 5 μg/ml of ND41 (detection system for mouse anti-human NR10 antibody); and the other one with anti-Myc antibody (SantaCruz, Cat.#sc-789) 500-times diluted with TBS containing 5% skim milk (detection system for Myc tag) at room temperature for one hour.
(§2) After washing three times with TBS containing 0.05% Tween™ 20, the secondary antibodies were incubated with the membranes. Alkaline phosphatase-labeled goat anti-human IgGγ (BIOSOURCE, Cat. #AHI0305) was used to detect humanized anti-human NR10 antibody; alkaline phosphatase-labeled goat anti-mouse IgG (SantaCruz, Cat. #sc-2008) was used to detect mouse anti-human NR10 antibody; and alkaline phosphatase-labeled goat anti-rabbit IgG (SantaCruz, Cat. #sc-2057) was used to detect Myc tag. The reaction was carried out at room temperature for one hour. […]

[2] = target: T2, rhNR10 (recombinant human NR10) (human, UniProt Q8NI17 20-519, limits assumed); assay: SPR, Biacore T100; antibody captured on Protein A, rhNR10 as analyte
T2 construct: also called IL-31 receptor; IL31RA
T2 sequence: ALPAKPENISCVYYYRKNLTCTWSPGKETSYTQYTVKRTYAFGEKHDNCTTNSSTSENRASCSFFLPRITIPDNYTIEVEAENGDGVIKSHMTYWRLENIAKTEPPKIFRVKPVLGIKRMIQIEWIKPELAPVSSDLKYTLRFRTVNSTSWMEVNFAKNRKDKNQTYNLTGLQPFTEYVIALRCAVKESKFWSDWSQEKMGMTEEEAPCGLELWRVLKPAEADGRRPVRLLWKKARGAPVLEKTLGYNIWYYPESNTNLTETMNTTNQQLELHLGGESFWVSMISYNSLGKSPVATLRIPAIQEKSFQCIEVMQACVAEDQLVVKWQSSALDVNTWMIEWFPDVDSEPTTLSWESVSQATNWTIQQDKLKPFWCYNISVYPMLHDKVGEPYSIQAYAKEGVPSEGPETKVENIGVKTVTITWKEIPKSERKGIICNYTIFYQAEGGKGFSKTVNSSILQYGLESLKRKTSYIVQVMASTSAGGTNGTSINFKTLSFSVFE
Protocol: Kinetic analysis of the antigen-antibody reaction was carried out using Biacore T100 (GE Healthcare Biosciences). The antigen-antibody interaction was measured by immobilizing rec-Protein A (hereinafter Protein A) (ZYMED) onto a sensor chip, capturing an antibody on the immobilized Protein A, and then reacting the antigen as an analyte. Various concentrations of rhNR10 were used as the antigen. The kinetic parameters, association rate constant kₐ (1/Ms) and dissociation rate constant kd (1/s), were calculated from the sensorgrams obtained by the measurement. Then, KD (M) was determined based on the rate constants. Each parameter was determined using Biacore T100 Evaluation Software version 1.1 (GE Healthcare Biosciences).
The running buffer used was HBS-EP+. Each antibody was prepared at 0.25 μg/ml, or prepared so that about 100 RU would bind to Protein A. rhNR10 used as an analyte was prepared at 0, 38.5, 77.0, and 154 nM, or at 0, 19.25, and 77.01 nM using HBS-EP+. In the measurement, first, the antibody solution was captured on Protein A, and an analyte solution was reacted at a flow rate of 20 μL/min for three minutes. Then, the solution was switched to HBS-EP+, and the dissociation phase was measured for five minutes. After measurement of the dissociation phase, the sensor chip was regenerated by washing with 10 mM glycine-HCl (pH 1.5). The obtained sensorgrams were kinetically analyzed using the Biacore-specific data analysis software, Biacore T100 Evaluation Software Version 1.1.

[3] = target: T3, mhh (human/mouse chimeric NR10 extracellular domain, His/Myc tagged) (human/mouse chimera); assay: Western blot of purified His/Myc-tagged NR10-ECD probed with H44M58L17, detected with AP-labeled goat anti-human IgG
T3 construct: C-terminal His-Myc tag
T3 chain: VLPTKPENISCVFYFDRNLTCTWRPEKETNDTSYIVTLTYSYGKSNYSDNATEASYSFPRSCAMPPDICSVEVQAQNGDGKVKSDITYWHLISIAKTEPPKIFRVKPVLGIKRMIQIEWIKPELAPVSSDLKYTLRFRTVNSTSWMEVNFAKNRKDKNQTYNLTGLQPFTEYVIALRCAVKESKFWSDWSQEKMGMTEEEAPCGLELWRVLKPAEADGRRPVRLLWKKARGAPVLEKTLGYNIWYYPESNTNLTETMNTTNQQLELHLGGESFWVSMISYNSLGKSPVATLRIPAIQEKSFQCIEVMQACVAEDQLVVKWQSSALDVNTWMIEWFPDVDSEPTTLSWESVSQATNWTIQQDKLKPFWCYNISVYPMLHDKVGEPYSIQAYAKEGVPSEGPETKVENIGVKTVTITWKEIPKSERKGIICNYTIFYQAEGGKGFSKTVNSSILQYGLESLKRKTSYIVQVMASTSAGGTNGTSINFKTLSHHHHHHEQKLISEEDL
Protocol: as §1, §2

B1: H44L17 (H44-M58 / L17) (antibody, V domains shown)
VH: QVQLVQSGAEVKKPGASVKVSCKASGYTFTGYIMNWVRQAPGQGLEWMGLINPYNGGTDYNPQFQDRVTITADKSTSTAYMELSSLRSEDTAVYYCARDGYDDGPYTLETWGQGTLVTVSS
VL: DIQMTQSPSSLSASVGDRVTITCQASEDIYSFVAWYQQKPGKAPKLLIYNAQTEAQGVPSRFSGSGSGTDFTLTISSLQPEDFATYYCQHHYDSPLTFGGGTKVEIKR
notes: also called humanized anti-human NR10 antibody
binding result [1]: no binding (tested: 5 µg/ml)
Kd [2]: 1.2 nM
koff [2]: 0.00072 s⁻¹
kon [2]: 610000 M⁻¹ s⁻¹
binding result [3]: no binding
